The text below walks through data of patent US7132278.

Sequences and labels used below:
T1: AMARA peptide, synthetic substrate NH2-AMARAASAAALARRR-CO2H
T1 chain: AMARAASAAALARRR

B1: PASK ΔN, truncated variant of human PASK lacking both PAS domains (protein)
chain: SLPGSTHSTAAELTGPSLVEVLRARPWFEEPPKAVELEGLAACEGEYSQKYSTMSPLGSGAFGFVWTAVDKEKNKEVVVKFIKKEKVLEDCWIEDPKLGKVTLEIAILSRVEHANIIKVLDIFENQGFFQLVMEKHGSGLDLFAFIDRHPRLDEPLASYIFRQLVSAVGYLRLKDIIHRDIKDENIVIAEDFTIKLIDFGSAAYLERGKLFYTFCGTIEYCAPEVLMGNPYRGPELEMWSLGVTLYTLVFEENPFCELEETVEAAIHPPYLVSKELMSLVSGLLQPVPERRTTLEKLVTDPWVTQPVNLADYTWEEVCRVNKPESGVLSAASLEMGNRSLSDVAQAQELCGGPVPGEAPNGQGCLHPGDPRLLTS
B2: human PASK S1287,89A, pre-phosphorylated (protein)
chain: MEDGGLTAFEEDQRCLSQSLPLPVSAEGPAAQTTAEPSRSFSSAHRHLSRRNGLSRLCQSRTALSEDRWSSYCLSSLAAQNICTSKLHCPAAPEHTDPSEPRGSVSCCSLLRGLSSGWSSPLLPAPVCNPNKAIFTVDAKTTEILVANDKACGLLGYSSQDLIGQKLTQFFLRSDSDVVEALSEEHMEADGHAAVVFGTVVDIISRSGEKIPVSVWMKRMRQERRLCCVVVLEPVERVSTWVAFQSDGTVTSCDSLFAHLHGYVSGEDVAGQHITDLIPSVQLPPSGQHIPKNLKIQRSVGRARDGTTFPLSLKLKSQPSSEEATTGEAAPVSGYRASVWVFCTISGLITLLPDGTIHGINHSFALTLFGYGKTELLGKNITFLIPGFYSYMDLAYNSSLQLPDLASCLDVGNESGCGERTLDPWQGQDPAEGGQDPRINVVLAGGHVVPRDEIRKLMESQDIFTGTQTELIAGGQLLSCLSPQPAPGVDNVPEGSLPVHGEQALPKDQQITALGREEPVAIESPGQDLLGESRSEPVDVKPFASCEDSEAPVPAEDGGSDAGMCGLCQKAQLERMGVSGPSGSDLWAGAAVAKPQAKGQLAGGSLLMHCPCYGSEWGLWWRSQDLAPSPSGMAGLSFGTPTLDEPWLGVENDREELQTCLIKEQLSQLSLAGALDVPHAELVPTECQAVTAPVSSCDLGGRDLCGGCTGSSSACYALATDLPGGLEAVEAQEVDVNSFSWNLKELFFSDQTDQTSSNCSCATSELRETPSSLAVGSDPDVGSLQEQGSCVLDDRELLLLTGTCVDLGQGRRFRESCVGHDPTEPLEVCLVSSEHYAASDRESPGHVPSTLDAGPEDTCPSAEEPRLNVQVTSTPVIVMRGAAGLQREIQEGAYSGSCHHRDGLRLSIQFEVRRVELQGPTPLFCCWLVKDLLHSQRDSAARTRLFLASLPGSTHSTAAELTGPSLVEVLRARPWFEEPPKAVELEGLAACEGEYSQKYSTMSPLGSGAFGFVWTAVDKEKNKEVVVKFIKKEKVLEDCWIEDPKLGKVTLEIAILSRVEHANIIKVLDIFENQGFFQLVMEKHGSGLDLFAFIDRHPRLDEPLASYIFRQLVSAVGYLRLKDIIHRDIKDENIVIAEDFTIKLIDFGSAAYLERGKLFYTFCGTIEYCAPEVLMGNPYRGPELEMWSLGVTLYTLVFEENPFCELEETVEAAIHPPYLVSKELMSLVSGLLQPVPERRTTLEKLVTDPWVTQPVNLADYTWEEVCRVNKPESGVLSAASLEMGNRALADVAQAQELCGGPVPGEAPNGQGCLHPGDPRLLTS
B3: human PASK S1273-1289A, pre-phosphorylated (protein)
chain: B2 chain with S1273A, S1277A, S1280A

Residue numbers refer to the chain shown, from its start.

The series has as its target T1, AMARA peptide, synthetic substrate ….
Turning to B1, the Km (mM), pre-phosphorylated was determined as 0.3 mM. Turning to B2, the Km (mM), pre-phosphorylated turned out to be 0.2 mM. Take B3: the Km (mM), pre-phosphorylated amounted to 0.2 mM.
